Assay [1] addresses T1, human SIRPα variant 2 (human, UniProt P78324 31-504).
T1 construct: full length ORF on transfected CHO-K1 cells; also called hSIRPαV2; SIRPαV2
Nature of the assay: CELISA, CHO-K1 transfectants; average of two experiments. The protocol:
(§1) Binding of the humanized antibodies to hSIRPα was studied in CELISA format. Binding of the hSIRPα antibodies to human SIRPαV1, SIRPαV2, hSIRPβ1, and hSIRPγ was confirmed using CHO-K1 cells that had been transiently transfected with cDNA encoding the full length open reading frame of each of these respective targets subcloned into the pCI-neo vector. CHO-K1.hSIRPαV1, CHO-K1.hSIRPαV2, CHO-K1.hSIRPβ1, and CHO-K1.hSIRPγ cells were seeded in culture medium (DMEM-F12 (Gibco) supplemented with 5% New Born Calf Serum (BioWest) and Pen/Strep (Gibco)) in 96-well flat-bottom tissue culture plates and incubated at 37° C., 5% CO₂ and 95% humidity until cell layers were confluent. Subsequently, culture medium was removed and cells were incubated for 1 hour at 37° C., 5% CO₂ and 95% humidity with purified hSIRPα antibodies (10 μg/mL and dilutions thereof). Next, cells were washed with PBS-T and incubated for 1 hour at 37° C., 5% CO₂ and 95% humidity with goat-anti-human IgG-HRP conjugate (Jackson Immuno Research) or goat-anti-mouse IgG-HRP (Southern Biotech). Subsequently, cells were washed three times with PBS-T and anti-hSIRPα immunoreactivity was visualized with TMB Stabilized Chromogen (Invitrogen). Reactions were stopped with 0.5 M H₂SO₄ and absorbances were read at 450 and 610 nm. […] In Table 13 the EC50 values of the humanized hSIRPα antibodies are depicted.
(§2) Table 13: Binding of humanized and parental hSIRPα.50A antibodies to CHO-K1.hSIRPαV1, CHO-K1.hSIRPαV2, CHO-K1.hSIRPβ1, and CHO-K1.hSIRPγ cells.

Assay [2] addresses T2, human SIRPα variant 1 (human, UniProt P78324 31-504).
T2 construct: full length ORF on transfected CHO-K1 or HEK293 cells; entry includes the signal peptide; also called hSIRPαV1; SIRPαV1
The assay is described as above. Here is the method: as §1, §2

For assay [3], the target named is T3, human SIRPβ1 (human, UniProt O00241 30-398).
T3 construct: also called hSIRPβ1
Nature of the assay: CELISA, CHO-K1 transfectants; nd = not detected. Here is the method:
as §1, §2

For assay [4], the target named is T4, human SIRPγ (human, UniProt Q9P1W8 29-387).
T4 construct: on transfected CHO-K1 cells; also called hSIRPγ
Nature of the assay: CELISA, CHO-K1 transfectants; extrapolated. Here is the method: as §1, §2

T3 sequence (O00241 30-398 limits assumed): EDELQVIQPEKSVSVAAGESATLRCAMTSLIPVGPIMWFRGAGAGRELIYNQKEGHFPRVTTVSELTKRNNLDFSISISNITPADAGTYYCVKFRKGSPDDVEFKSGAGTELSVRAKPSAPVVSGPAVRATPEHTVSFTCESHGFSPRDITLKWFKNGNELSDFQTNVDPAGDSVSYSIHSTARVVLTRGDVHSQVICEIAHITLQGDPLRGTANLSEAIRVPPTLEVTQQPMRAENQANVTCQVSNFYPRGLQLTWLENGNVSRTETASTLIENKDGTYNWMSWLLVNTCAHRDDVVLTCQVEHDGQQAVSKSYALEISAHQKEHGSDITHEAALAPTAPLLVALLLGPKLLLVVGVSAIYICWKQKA
T1 sequence (P78324 other isoform, or with tags, fused parts or gaps mutant limits assumed): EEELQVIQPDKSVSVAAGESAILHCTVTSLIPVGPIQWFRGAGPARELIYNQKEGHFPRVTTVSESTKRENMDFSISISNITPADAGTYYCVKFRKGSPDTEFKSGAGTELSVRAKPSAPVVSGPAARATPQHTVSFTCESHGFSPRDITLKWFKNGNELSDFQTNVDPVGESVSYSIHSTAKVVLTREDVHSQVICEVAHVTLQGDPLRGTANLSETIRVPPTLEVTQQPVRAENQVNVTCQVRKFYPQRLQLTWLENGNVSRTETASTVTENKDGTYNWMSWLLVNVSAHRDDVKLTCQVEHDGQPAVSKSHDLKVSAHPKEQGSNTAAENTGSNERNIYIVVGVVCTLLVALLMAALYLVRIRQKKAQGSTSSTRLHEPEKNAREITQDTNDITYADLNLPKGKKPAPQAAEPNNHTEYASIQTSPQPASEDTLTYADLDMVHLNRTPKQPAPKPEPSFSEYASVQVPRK
T4 sequence (Q9P1W8 29-387 limits assumed): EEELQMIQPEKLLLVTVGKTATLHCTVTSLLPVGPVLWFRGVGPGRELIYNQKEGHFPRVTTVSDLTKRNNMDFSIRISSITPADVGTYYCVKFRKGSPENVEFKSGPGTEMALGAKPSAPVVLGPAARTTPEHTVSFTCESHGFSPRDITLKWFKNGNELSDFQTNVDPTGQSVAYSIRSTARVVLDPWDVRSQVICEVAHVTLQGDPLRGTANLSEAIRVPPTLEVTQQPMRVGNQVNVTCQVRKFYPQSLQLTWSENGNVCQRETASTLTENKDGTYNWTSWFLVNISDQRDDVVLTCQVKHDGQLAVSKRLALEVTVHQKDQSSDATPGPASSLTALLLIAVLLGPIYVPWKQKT
T2 sequence (P78324 31-504 limits assumed, change not shown): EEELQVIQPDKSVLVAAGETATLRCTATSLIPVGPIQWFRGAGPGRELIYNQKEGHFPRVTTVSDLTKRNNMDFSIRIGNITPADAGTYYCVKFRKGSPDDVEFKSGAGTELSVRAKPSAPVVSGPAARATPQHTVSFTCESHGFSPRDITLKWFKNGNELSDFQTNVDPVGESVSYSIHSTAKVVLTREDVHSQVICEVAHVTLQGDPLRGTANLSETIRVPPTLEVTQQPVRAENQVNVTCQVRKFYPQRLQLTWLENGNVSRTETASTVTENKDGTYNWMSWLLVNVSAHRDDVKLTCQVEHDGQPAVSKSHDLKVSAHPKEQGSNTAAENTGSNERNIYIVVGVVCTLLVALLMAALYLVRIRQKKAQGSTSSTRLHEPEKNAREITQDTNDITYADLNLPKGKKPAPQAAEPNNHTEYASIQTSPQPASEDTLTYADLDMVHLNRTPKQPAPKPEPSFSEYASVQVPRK

B1: hSIRPα.50A.H1L2 (antibody, human IgG4 S228P, kappa, V domains shown)
VH: EVQLQQSGAEVVKPGASVKVSCKASGFTFTNYYIHWVRQAPGQGLEWIGWIYPGNVNTKYNEKFKARVTITADKSTSTAYMDLSSLRSEDTAVYYCARPTIIATDFDVWGQGTTVTVSS
VL: DIVMTQSPSSLSASVGDRVTITCKASQGVGTAVGWYQQKPGKAPKLLIYWASTRHTGVPDRFSGSGSGTDFTLTISNLQPEDFADYYCQQYSTYPFTFGGGTKVEIKR
notes: human IgG4 S228P, kappa; also called hSIRPα.50H1L2
On to B1, for which the results for the EC50 in assay [1], in assay [2] and in assay [4] were 0.816 nM, 0.781 nM and 1.26 nM, respectively. For the same molecule, in assay [3], the binding result was “no binding (tested: 10 µg/mL and dilutions thereof)”.

B2: hSIRPα.50A.H3L1 (antibody, human IgG4 S228P, kappa, V domains shown)
VH: EVQLVQSGAEVVKPGASVMISCKASGFTFTNYYIHWVRQRPGQGLEWIGWIYPGNVNTKYNEKFKARVIMTADKSTSTVYMQLSSLTSEDTAVYYCARPTIIATDFDVWGQGTLVTVSS
VL: DIVLTQSPSFLSASVGDRVTITCKASQGVGTAVGWYQQKPGKAPKLLIYWASTRHTGVPDRFSGSGSGTEFTLTISSLQPEDFAAYYCQQYSTYPFTFGGGTKLEIKR
notes: human IgG4 S228P, kappa; also called hSIRPα.50H3L1
For the molecule B2, the EC50 in assay [1] is 1.06 nM; in assay [2], 1.1 nM; in assay [4], 1.42 nM. Besides, the binding result in assay [3] is “no binding (tested: 10 µg/mL and dilutions thereof)”.

B3: hSIRPα.50A.H4L3 (antibody, human IgG4 S228P, kappa, V domains shown)
VH: EVQLQQSGAELVKPGASVKVSCKASGFTFTNYYIHWVRQRPGQGLEWMGWIYPGNVNTKYNEKFKAKATITADKSTSTAYMELSSLTSEDTAVYYCARPTIIATDFDVWGQGTTVTVSS
VL: ELVMTQSPSSLSASVGDRVTITCKASQGVGTAVGWYQQKPGKAPKLLIYWASTRHTGVPDRFSGSGSGTDFTLAISSLQPEDIADYYCQQYSTYPFTFGGGTKVEIKR
notes: human IgG4 S228P, kappa; also called hSIRPα.50H4L3
On to B3, for which the EC50 in assay [1] is 0.898 nM; in assay [2], 0.933 nM; in assay [4] it was 1.6 nM. Also, the binding result in assay [3] is “no binding (tested: 10 µg/mL and dilutions thereof)”.

B4: hSIRPα.50A.H1L5 (antibody, human IgG4 S228P, kappa, V domains shown)
VH: EVQLQQSGAEVVKPGASVKVSCKASGFTFTNYYIHWVRQAPGQGLEWIGWIYPGNVNTKYNEKFKARVTITADKSTSTAYMDLSSLRSEDTAVYYCARPTIIATDFDVWGQGTTVTVSS
VL: DIVLTQSPSFLSASVGDRVTITCKASQGVGTAVGWYQQKPGKSPKLLIYWASTRHTGVPDRFSGSGSGTEFTLTISNLQPEDFAAYYCQQYSTYPFTFGGGTKLEIKR
notes: human IgG4 S228P, kappa; also called hSIRPα.50H1L5
On to B4, for which the EC50 in assay [1] was 0.848 nM; in assay [2], 0.962 nM; in assay [4] it was 1.01 nM. Moreover, the binding result in assay [3] was “no binding (tested: 10 µg/mL and dilutions thereof)”.

B5: hSIRPα.50A.H5L5 (antibody, human IgG4 S228P, kappa, V domains shown)
VH: EVQLVQSGAEVVKPGASVKVSCKASGFTFTNYYIHWVRQAPEQGLEWIGWIYPGNVNTKYNEKFKARVTMTADKSTSTAYMELSSLRSDDMAVYYCARPTIIATDFDVWGQGTTVTVSS
VL: DIVLTQSPSFLSASVGDRVTITCKASQGVGTAVGWYQQKPGKSPKLLIYWASTRHTGVPDRFSGSGSGTEFTLTISNLQPEDFAAYYCQQYSTYPFTFGGGTKLEIKR
notes: human IgG4 S228P, kappa; also called hSIRPα.50H5L5
For the molecule B5, the values for the EC50 in assay [1], in assay [2] and in assay [4] were 0.611 nM, 0.681 nM and 0.868 nM, respectively. The binding result in assay [3] was “no binding (tested: 10 µg/mL and dilutions thereof)”.

B6: hSIRPα.50A.H1L4 (antibody, human IgG4 S228P, kappa, V domains shown)
VH: EVQLQQSGAEVVKPGASVKVSCKASGFTFTNYYIHWVRQAPGQGLEWIGWIYPGNVNTKYNEKFKARVTITADKSTSTAYMDLSSLRSEDTAVYYCARPTIIATDFDVWGQGTTVTVSS
VL: DIQMTQSPSSLSASVGDRVTITCKASQGVGTAVGWYQKKPGKVPKLLIYWASTRHTGVPDRFSGSGSGTDFTLTINGLQPEDVATYYCQQYSTYPFTFGGGTKLEIKR
notes: human IgG4 S228P, kappa; also called hSIRPα.50H1L4
In the case of B6, the EC50 in assay [1] was 1.62 nM; in assay [2], 1.49 nM; in assay [4] it was 7.43 nM. For the same molecule, the binding result in assay [3] was “no binding (tested: 10 µg/mL and dilutions thereof)”.

B7: hSIRPα.50A.H5L2 (antibody, human IgG4 S228P, kappa, V domains shown)
VH: EVQLVQSGAEVVKPGASVKVSCKASGFTFTNYYIHWVRQAPEQGLEWIGWIYPGNVNTKYNEKFKARVTMTADKSTSTAYMELSSLRSDDMAVYYCARPTIIATDFDVWGQGTTVTVSS
VL: DIVMTQSPSSLSASVGDRVTITCKASQGVGTAVGWYQQKPGKAPKLLIYWASTRHTGVPDRFSGSGSGTDFTLTISNLQPEDFADYYCQQYSTYPFTFGGGTKVEIKR
notes: human IgG4 S228P, kappa; also called hSIRPα.50H5L2
For B7, the results for the EC50 in assay [1], in assay [2] and in assay [4] were 0.572 nM, 0.675 nM and 0.822 nM, respectively. Besides, the binding result in assay [3] was “no binding (tested: 10 µg/mL and dilutions thereof)”.

B8: hSIRPα.50A.H5L3 (antibody, human IgG4 S228P, kappa, V domains shown)
VH: EVQLVQSGAEVVKPGASVKVSCKASGFTFTNYYIHWVRQAPEQGLEWIGWIYPGNVNTKYNEKFKARVTMTADKSTSTAYMELSSLRSDDMAVYYCARPTIIATDFDVWGQGTTVTVSS
VL: ELVMTQSPSSLSASVGDRVTITCKASQGVGTAVGWYQQKPGKAPKLLIYWASTRHTGVPDRFSGSGSGTDFTLAISSLQPEDIADYYCQQYSTYPFTFGGGTKVEIKR
notes: human IgG4 S228P, kappa; also called hSIRPα.50H5L3
Take B8: the EC50 is 0.796 nM in assay [1], 1.03 nM in assay [2] and 1.61 nM in assay [4]. The binding result in assay [3] was “no binding (tested: 10 µg/mL and dilutions thereof)”.

B9: hSIRPα.50A.H3L2 (antibody, human IgG4 S228P, kappa, V domains shown)
VH: EVQLVQSGAEVVKPGASVMISCKASGFTFTNYYIHWVRQRPGQGLEWIGWIYPGNVNTKYNEKFKARVIMTADKSTSTVYMQLSSLTSEDTAVYYCARPTIIATDFDVWGQGTLVTVSS
VL: DIVMTQSPSSLSASVGDRVTITCKASQGVGTAVGWYQQKPGKAPKLLIYWASTRHTGVPDRFSGSGSGTDFTLTISNLQPEDFADYYCQQYSTYPFTFGGGTKVEIKR
notes: human IgG4 S228P, kappa; also called hSIRPα.50H3L2
For the molecule B9, the EC50 is 0.999 nM in assay [1], 1.05 nM in assay [2] and 1.5 nM in assay [4]. Also, in assay [3], the binding result is “no binding (tested: 10 µg/mL and dilutions thereof)”.

B10: hSIRPα.50A.H4L2 (antibody, human IgG4 S228P, kappa, V domains shown)
VH: EVQLQQSGAELVKPGASVKVSCKASGFTFTNYYIHWVRQRPGQGLEWMGWIYPGNVNTKYNEKFKAKATITADKSTSTAYMELSSLTSEDTAVYYCARPTIIATDFDVWGQGTTVTVSS
VL: DIVMTQSPSSLSASVGDRVTITCKASQGVGTAVGWYQQKPGKAPKLLIYWASTRHTGVPDRFSGSGSGTDFTLTISNLQPEDFADYYCQQYSTYPFTFGGGTKVEIKR
notes: human IgG4 S228P, kappa; also called hSIRPα.50H4L2
Consider B10, for which the EC50 in assay [1] was 0.651 nM; in assay [2] it was 0.737 nM; in assay [4], 0.871 nM. In addition, the binding result in assay [3] was “no binding (tested: 10 µg/mL and dilutions thereof)”.

B11: hSIRPα.50A.H1L3 (antibody, human IgG4 S228P, kappa, V domains shown)
VH: EVQLQQSGAEVVKPGASVKVSCKASGFTFTNYYIHWVRQAPGQGLEWIGWIYPGNVNTKYNEKFKARVTITADKSTSTAYMDLSSLRSEDTAVYYCARPTIIATDFDVWGQGTTVTVSS
VL: ELVMTQSPSSLSASVGDRVTITCKASQGVGTAVGWYQQKPGKAPKLLIYWASTRHTGVPDRFSGSGSGTDFTLAISSLQPEDIADYYCQQYSTYPFTFGGGTKVEIKR
notes: human IgG4 S228P, kappa; also called hSIRPα.50H1L3
For the molecule B11, the EC50 in assay [1] was 1.11 nM; in assay [2], 1.09 nM; in assay [4], 2.58 nM. Moreover, in assay [3], the binding result is “no binding (tested: 10 µg/mL and dilutions thereof)”.

B12: hSIRPα.50A.H5L1 (antibody, human IgG4 S228P, kappa, V domains shown)
VH: EVQLVQSGAEVVKPGASVKVSCKASGFTFTNYYIHWVRQAPEQGLEWIGWIYPGNVNTKYNEKFKARVTMTADKSTSTAYMELSSLRSDDMAVYYCARPTIIATDFDVWGQGTTVTVSS
VL: DIVLTQSPSFLSASVGDRVTITCKASQGVGTAVGWYQQKPGKAPKLLIYWASTRHTGVPDRFSGSGSGTEFTLTISSLQPEDFAAYYCQQYSTYPFTFGGGTKLEIKR
notes: human IgG4 S228P, kappa; also called hSIRPα.50H5L1
For the molecule B12, the EC50 in assay [1] was 0.709 nM; in assay [2] it was 0.731 nM; in assay [4], 1.03 nM. The binding result in assay [3] is “no binding (tested: 10 µg/mL and dilutions thereof)”.

B13: hSIRPα.50A.H1L1 (antibody, human IgG4 S228P, kappa, V domains shown)
VH: EVQLQQSGAEVVKPGASVKVSCKASGFTFTNYYIHWVRQAPGQGLEWIGWIYPGNVNTKYNEKFKARVTITADKSTSTAYMDLSSLRSEDTAVYYCARPTIIATDFDVWGQGTTVTVSS
VL: DIVLTQSPSFLSASVGDRVTITCKASQGVGTAVGWYQQKPGKAPKLLIYWASTRHTGVPDRFSGSGSGTEFTLTISSLQPEDFAAYYCQQYSTYPFTFGGGTKLEIKR
notes: human IgG4 S228P, kappa; also called hSIRPα.50H1L1
In the case of B13, the EC50 is 0.864 nM in assay [1], 0.883 nM in assay [2] and 1.49 nM in assay [4]. For the same molecule, the binding result in assay [3] was “no binding (tested: 10 µg/mL and dilutions thereof)”.

Source of the values: patent US20180312587A1 (ADURO BIOTECH HOLDINGS EUROPE B V, published 2018).
